Results reported in PMC8976717 (The Plant journal : for cell and molecular biology, 2021).

Target: the molecule itself
Experiment: non-reducing SDS-PAGE

B1: GAUT1Δ167 (Arabidopsis GALACTURONOSYLTRANSFERASE 1, truncated at the in vivo cleavage site between residues 167 and 168) (enzyme, Arabidopsis thaliana, UniProt Q9LE59 168-673, looked up)
chain: RANELVQHNDDTILKLENAAIERSKSVDSAVLGKYSIWRRENENDNSDSNIRLMRDQVIMARVYSGIAKLKNKNDLLQELQARLKDSQRVLGEATSDADLPRSAHEKLRAMGQVLAKAKMQLYDCKLVTGKLRAMLQTADEQVRSLKKQSTFLAQLAAKTIPNPIHCLSMRLTIDYYLLSPEKRKFPRSENLENPNLYHYALFSDNVLAASVVVNSTIMNAKDPSKHVFHLVTDKLNFGAMNMWFLLNPPGKATIHVENVDEFKWLNSSYCPVLRQLESAAMREYYFKADHPTSGSSNLKYRNPKYLSMLNHLRFYLPEVYPKLNKILFLDDDIIVQKDLTPLWEVNLNGKVNGAVETCGESFHRFDKYLNFSNPHIARNFNPNACGWAYGMNMFDLKEWKKRDITGIYHKWQNMNENRTLWKLGTLPPGLITFYGLTHPLNKAWHVLGLGYNPSIDKKDIENAAVVHYNGNMKPWLELAMSKYRPYWTKYIKFDHPYLRRCNLHE
- binding result: binds
